Measured values as given in the Immune Epitope Database (IEDB).

Experiments:
[1] = molecular target: HLA-B*08:01; test: IEDB peptide-MHC binding, purified MHC/competitive/radioactivity; filed as Kd, often an IC50 or EC50 that approximates it; ≥ and ≤ were set here for values at or beyond the usual limits of such assays; details: source organism: Dengue virus 3 Martinique/1243/1999
[2] = molecular target: HLA-B*51:01; test: as above
[3] = molecular target: HLA-B*40:01; test: as above
[4] = molecular target: HLA-B*44:02; test: as above; details: source organism: Dengue virus 3 Singapore/8120/1995
[5] = molecular target: HLA-B*15:01; test: IEDB peptide-MHC binding, purified MHC/competitive/fluorescence; ≥ and ≤ were set here for values at or beyond the usual limits of such assays
[6] = molecular target: HLA-A*32:01; test: IEDB peptide-MHC binding, purified MHC/competitive/radioactivity; filed as Kd, often an IC50 or EC50 that approximates it; ≥ and ≤ were set here for values at or beyond the usual limits of such assays; details: source organism: Vaccinia virus WR
[7] = molecular target: HLA-A*02:01; test: IEDB peptide-MHC binding, purified MHC/competitive/fluorescence; ≥ and ≤ were set here for values at or beyond the usual limits of such assays
[8] = molecular target: HLA-A*24:02; test: as above
[9] = molecular target: HLA-B*35:01; test: IEDB peptide-MHC binding, purified MHC/competitive/radioactivity; filed as Kd, often an IC50 or EC50 that approximates it; ≥ and ≤ were set here for values at or beyond the usual limits of such assays
[10] = molecular target: HLA-B*07:02; test: as above
[11] = molecular target: HLA-A*11:01; test: IEDB peptide-MHC binding, purified MHC/direct/fluorescence; filed as Kd, often an IC50 or EC50 that approximates it; ≥ and ≤ were set here for values at or beyond the usual limits of such assays
[12] = molecular target: HLA-B*27:05; test: as above
[13] = molecular target: HLA-A*01:01; test: as above
[14] = molecular target: HLA-B*58:01; test: as above
[15] = molecular target: HLA-A*26:01; test: as above
[16] = molecular target: HLA-B*08:01; test: as above
[17] = molecular target: HLA-B*40:01; test: as above
[18] = molecular target: HLA-B*07:02; test: as above
[19] = molecular target: HLA-A*03:01; test: as above
[20] = molecular target: HLA-A*69:01; test: as above
[21] = molecular target: HLA-A*02:01; test: as above
[22] = molecular target: HLA-B*15:01; test: as above
[23] = molecular target: HLA-A*24:03; test: as above
[24] = molecular target: HLA-B*39:01; test: IEDB peptide-MHC binding, purified MHC/competitive/fluorescence; filed as Kd, often an IC50 or EC50 that approximates it; ≥ and ≤ were set here for values at or beyond the usual limits of such assays; details: source organism: Escherichia coli
[25] = molecular target: HLA-B*15:01; test: as above; details: source organism: Escherichia coli
[26] = molecular target: HLA-A*31:01; test: IEDB peptide-MHC binding, purified MHC/direct/fluorescence; filed as Kd, often an IC50 or EC50 that approximates it; ≥ and ≤ were set here for values at or beyond the usual limits of such assays; details: source organism: Giardia lamblia ATCC 50803
[27] = molecular target: HLA-B*44:02; test: as above; details: source organism: Giardia lamblia ATCC 50803
[28] = molecular target: HLA-A*30:02; test: IEDB peptide-MHC binding, purified MHC/competitive/radioactivity; filed as Kd, often an IC50 or EC50 that approximates it; ≥ and ≤ were set here for values at or beyond the usual limits of such assays; details: source organism: Dengue virus 2 Jamaica/1409/1983
[29] = source organism: Dengue virus 3 Martinique/1243/1999
[30] = source organism: Dengue virus 2 Jamaica/1409/1983
[31] = source organism: Vaccinia virus
[32] = source organism: Sudan ebolavirus
[33] = source organism: Dengue virus 4 Philippines/H241/1956
[34] = source organism: Dengue virus 1 Brazil/97-11/1997
[35] = source organism: Zaire ebolavirus
[36] = source organism: Pasteurella multocida
[37] = source organism: Histophilus somni
[38] = source organism: Giardia lamblia ATCC 50803

LATLRKLCI was tested, and the Kd [1] was 359 nM and the Kd [2, 29] was 2530 nM.

For LAVWNRVWI, the Kd [2, 30] was 4950 nM.

With LECSPRTGL the Kd [3, 29] was 599 nM.

LEKASFIEV was tested, and the Kd ([3]; source organism: Dengue virus 3 Singapore/8120/1995) was 1040 nM and the Kd [4] was 9.57 µM.

LETDLRSEF showed an IC50 [5, 31] of 47.5 µM.

Work on LLLWFNYLF yielded a Kd [6] of 1.45 nM, an IC50 ([7]; source organism: Variola virus) of 0.125 µM and an IC50 ([5]; source organism: Variola virus) of no less than 2970 µM.

With LLQLPRDKF the IC50 [7, 32] was 13.3 µM, the IC50 [5, 32] was 10.6 µM and the IC50 [8, 32] was 4770 nM.

Work on LPIRYQTPAV yielded a Kd [9, 33] of 110 nM, a Kd [10, 33] of 26.7 nM and a Kd [2, 33] of 198 nM.

Work on LPLPWTSGA yielded a Kd [2, 34] of 926 nM.

Work on LQSPPIREA yielded an IC50 [7, 32] of 14.3 µM and an IC50 [5, 32] of 37.8 µM.

With MAVLFVVTL the Kd [9, 33] was 359 nM.

In the case of NPNMIDKTPV, the Kd ([10]; source organism: Dengue virus 4 Thailand/0348/1991) is reported as 402 nM.

QQKNSQKGQ was tested, and the IC50 [5, 35] was no less than 93.5 µM.

For QYPAFVLFI, the Kd [11, 36] was 2820 nM, the Kd [12, 37] was no less than 20 µM and the Kd [13, 37] was no less than 20 µM. For the same sequence, the Kd [14, 37] was no less than 20 µM, the Kd [15, 37] was no less than 20 µM and the Kd [16, 37] was no less than 20 µM. It also gave a Kd [17, 37] of no less than 20 µM, a Kd [18, 37] of no less than 20 µM and a Kd [19, 37] of no less than 20 µM. The Kd [20, 37] was no less than 20 µM, the Kd [21, 37] was no less than 20 µM and the Kd [22, 37] was no less than 20 µM. It also gave a Kd [23, 36] of 1.92 nM.

Sequence RHSDTAKAF has a Kd [24] of 268 nM and a Kd [25] of no less than 20 µM.

RPAKNGTVMD showed a Kd [10, 34] of 317 nM.

With RPRGHREFC the Kd [11, 38] was no less than 20000 nM, the Kd [12, 38] was no less than 20 µM and the Kd [26] was no less than 20 µM. It also gave a Kd [13, 38] of no less than 20 µM, a Kd [14, 38] of no less than 20 µM and a Kd [15, 38] of no less than 20 µM. The Kd [16, 38] was 8.07 µM, the Kd [17, 38] was no less than 20 µM and the Kd [18, 38] was 0.0984 µM. It also gave a Kd [19, 38] of no less than 20 µM, a Kd [20, 38] of no less than 20 µM and a Kd [21, 38] of no less than 20 µM. For the same sequence, the Kd [22, 38] was no less than 20 µM, the Kd [23, 38] was no less than 20000 nM and the Kd [27] was no less than 20 µM.

In the case of SETFSMGLL, the Kd [3, 33] is reported as 3.53 nM.

Sequence SKNNIGIEY has an IC50 [5, 31] of no less than 87.2 µM.

Sequence SLAIDAYPL has a Kd ([16]; source organism: SARS-CoV1) of 9.19 µM, a Kd ([17]; source organism: SARS-CoV1) of no less than 31.5 µM and a Kd ([18]; source organism: SARS-CoV1) of no less than 33.4 µM. For the same sequence, the Kd ([20]; source organism: SARS-CoV1) was 0.272 µM, the Kd ([21]; source organism: SARS-CoV1) was 0.145 µM and the Kd ([22]; source organism: SARS-CoV1) was 1.08 µM.

Sequence SLAKHGEYA has an IC50 [7, 35] of 7.2 µM and an IC50 [5, 35] of no less than 127 µM.

SPPPVGKAEL gave a Kd [10, 30] of 67.3 nM.

Sequence SPTVEESRTI has a Kd [2, 29] of 3780 nM.

VATTFITPM gave a Kd ([9]; source organism: Dengue virus 2 Peru/IQT2913/1996) of 146 nM.

VEDSRFWEL showed a Kd [3, 30] of 4280 nM.

In the case of VFAPKQKMF, the IC50 [5, 31] is reported as 14 µM and the IC50 [8, 31] is reported as 26.1 nM.

In the case of WHYDQDHPY, the Kd [9, 30] is reported as 7590 nM and the Kd [28] is reported as no less than 39.3 µM.
